# Results published in article PMC9976893, “Dynamic states of eIF6 and SDS variants modulate interactions with uL14 of the 60S ribosomal subunit” (Nucleic Acids Research, 2023).
# B1: uL14 peptide (aa 121-140) with S138 to A substitution (peptide)
# peptide: VAKECADLWPRIASNAGAIA
# notes: also called site-specific mutant peptide S138
# B2: uL14 peptide (aa 121-140) with alanine substitution of R131 (peptide)
# peptide: VAKECADLWPAIASNAGSIA
# notes: also called site-specific mutant peptide R131
# B3: uL14 peptide (aa 121-140) with alanine substitution of D127 (peptide)
# peptide: VAKECAALWPRIASNAGSIA
# notes: also called site-specific mutant peptide D127
# B4: uL14 peptide (aa 121-140) with alanine substitution of N135 (peptide)
# peptide: VAKECADLWPRIASAAGSIA
# notes: also called site-specific mutant peptide N135
# Molecular target: recombinant full-length human eIF6 (human, UniProt P56537 1-245)
# Test: SPR; eIF6 immobilised on a CM5 chip by NHS/EDC chemistry (4913 RU); peptides injected at 0-500 μM (1:2 dilutions) in 20 mM HEPES pH 7.4, 150 mM NaCl, 0.01% BSA, 0.002% Tween 20; 25 μl/min; BIAcore S200; profiles did not obey a 1:1 model
# Settings: both partners purified
row,Binder,percent reduction of binding against the uL14-WT peptide at 0.5 mM [%]
1,B1,~50
2,B2,~50
3,B3,~50
4,B4,~50
